According to patent US20200308267A1 (Boehringer Ingelheim, published 2020):
Like-named read-outs stand apart in the source and are kept apart here.

T1: recombinant mouse VEGF164 (mouse, UniProt Q00731-2 27-190, biotinylated in the AlphaScreen)
T1 construct: also called mVEGF164; rmVEGF164
T1 sequence (looked up): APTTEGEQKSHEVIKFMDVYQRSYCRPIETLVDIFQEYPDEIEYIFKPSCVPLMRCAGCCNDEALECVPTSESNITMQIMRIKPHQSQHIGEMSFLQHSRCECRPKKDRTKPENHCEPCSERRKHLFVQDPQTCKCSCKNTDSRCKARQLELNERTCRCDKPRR


Columns and labels:
VEGF [1] = experiment: cell-based or functional assay
VEGF [2] = experiment: cell-based or functional assay; remark: listed apart in the source
VEGF [3] = experiment: cell-based or functional assay; remark: listed apart in the source
[4] = molecular target: T2, recombinant human VEGF165 (human, UniProt P15692-4 27-191, biotinylated (Sulfo-NHS-LC-Biotin) in the competition assays); experiment: SPR Biacore T100, VEGF165 chip, Two State Reaction fit
T2 construct: also called hVEGF165; rhVEGF165
Description: Samples are injected for 2 min and allowed to dissociate up to 20 min at a flow rate of […]. In between sample injections, the chip surface is regenerated with 100 mM HCl. HBS-EP+(Hepes buffer pH7.4+EDTA) is used as running buffer. Binding curves are fitted using a Two State Reaction model by Biacore T100 Evaluation Software v2.0.1.
^{(a)}Heterogeneous binding curve resulting in no 1:1 fit, curves are fitted using a Two State Reaction model by Biacore T100 Evaluation Software v2.0.1

[5] = molecular target: T2, recombinant human VEGF165; experiment: Biacore, periplasmic extract, VEGF165 chip, two phase decay fit; parameters: unit not given here
Description: Dissociation rates of inhibitory VHHs are analyzed on Biacore (Biacore T100 instrument, GE Healthcare). HBS-EP+ buffer is used as running buffer and experiments are performed at 25° C. […] After immobilization, surfaces are deactivated with 10 min injection of 1 M ethanolamine pH8.5. A reference surface is activated and deactivated with respectively EDC/NHS and ethanolamine. Periplasmic extracts of VHHs are injected at a 10-fold dilution in running buffer for 2 min at 45 μl/min and allowed to dissociate for 10 or 15 min. Between different samples, the surfaces are regenerated with regeneration buffer. Data are double referenced by subtraction of the curves on the reference channel and of a blank running buffer injection. […] is evaluated by fitting a two phase decay model in the Biacore T100 Evaluation software v2.0.1.

[6] = molecular target: T1, recombinant mouse VEGF164; experiment: binding ELISA, coated rmVEGF164
Description: Cross-reactivity to mouse VEGF164 is determined using a binding ELISA. […] Wells are blocked with a casein solution (1% in PBS). […] A mouse VEGF164 reactive mAb is included as positive control.

HUVEC proliferation, % inhibition (VEGF [1]) | HUVEC proliferation, IC50 (VEGF [1]) | HUVEC Erk phosphorylation, IC50 (VEGF [2]) | HUVEC proliferation, % inhibition (VEGF [3]) | HUVEC proliferation, IC50 (VEGF [3]) | ka1 [4] | kd1 [4] | kd(fast) [5] | kd(slow) [5] | binding result [6] | Binder
91% | 0.36 nM | 0.37 nM | 92% | 0.68 nM | 210000 M⁻¹ s⁻¹ | 0.0086 s⁻¹ | 0.0088 | 4e-05 | – | VEGFBII23B04 (VHH, not shown: small tags and cut ends, also purified from E. coli TG1; also called VEGFBII23B4; VEGFBII23B04 (wt)) VHH: EVQLVESGGGLVQTGDSLRLSCEVSGRTFSSYSMGWFRQAQGKEREFVVAISKGGYKYDSVSLEGRFTISKDNAKNTVYLQINSLKPEDTAVYYCASSRAYGSSRLRLADTYEYWGQGTQVTVSS
73% | 4.29 nM | – | – | – | 420000 M⁻¹ s⁻¹ | 0.057 s⁻¹ | 0.017 | 3.7e-05 | – | VEGFBII23A06 (VHH, not shown: small tags and cut ends, also purified from E. coli TG1; also called VEGFBII23A6; 23A6) VHH: EVQLVESGGGLVQPGDSLKLSCAFSGRTFSSYSMGWFRQAQGKEREFVVAISSGGFIYDAVSLEGRFTISRDNTKNTVYLQTPSLKPEDTAVYYCAASRAYGSSRLRLADTYDYWGQGTQVTVSS
79% | 3.8 nM | – | – | – | 320000 M⁻¹ s⁻¹ | 0.026 s⁻¹ | 0.013 | 3.4e-05 | no binding (tested: 500 nM) | VEGFBII24C04 (VHH, not shown: small tags and cut ends, also purified from E. coli TG1; also called VEGFBII24C4) VHH: EVQLVESGGGLVQPGDSLKLSCVASGRTSSSYSMGWFRQAQGKEREFVVAISSGGYIYDSVSLQGRFTISRDNTKNTVYLQTPSLKPEDTAVYYCAASRAYGSSRLRLADTYDYWGQGTQVTVSS
